In this assay the target is T1, GP-1 (human, UniProt Q14242).
T1 chain: QATEYEYLDYDFLPETEPP
Kind of assay: SPR. Background: SPR reads the build-up and loss of mass on a sensor chip optically.

B1: SelK1 (antibody, V domains shown)
VH: QVQLQQSGPGLVKPSQTLSLTCAISGDSVSSNIAAWHWIRLSPSRGLEWLGRTYYRRSKWNYDYALSVKSRININPDTSKNLFSLQLNSVTPEDTAVYYCTRGGGRAHSAWGQGTLVTVSS
VL: EIVLTQSPGTLSVSPGERATLSCRASQSVSRSHLAWYQQKPGQAPRLLIFGASSRATGIPDRFSGSGSGTDFTLTISRLEPEDFAVYYCQQYGRPGVTFGQGTKVEIK
With B1, the binding result is “no binding”.

For the origin of these results see patent publication EP3388527.
